Assay results reported in PMC6294567, “The C-terminal D/E-rich domain of MBD3 is a putative Z-DNA mimic that competes for Zα DNA-binding activity” (Nucleic Acids Research, 2018).
Values joined by “and” are separate entries in the source; they are usually repeats but may differ in a detail not shown here. Equal values may be shown once. Blank lines part the entries; values can stand above or below the molecule they belong to.

Columns and labels:
[1] = system: replication protein A (RPA); conditions: cited from earlier work
Excerpt: This is the first report to identify a particular protein sequence with D/E repeats capable of competition with Z-DNA for binding to Zα, while the potential of acidic residues for DNA mimicry, referring to B-DNA or ssDNA, have been observed previously.

Zα [2] = target: T1, Zα (Homo sapiens, UniProt P55265); test: SEC / SDS-PAGE complex formation with Zα; type: binding; conditions: Zα 100 μM : protein 25 μM (4:1), ice 1 h, 20 mM Tris–HCl pH 7.5, 50 mM NaCl, 1 mM TCEP
T1 construct: Zα of human ADAR1; residues 133–209; His6 (pMCSG7, followed by a TEV site) (N, cleaved yes); made in house; host or cells: E. coli BL21(DE3)
T1 sequence (P55265 133-209): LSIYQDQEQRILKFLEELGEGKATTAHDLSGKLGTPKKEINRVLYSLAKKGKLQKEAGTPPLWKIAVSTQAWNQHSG
Method: Equimolar amounts (0.1 mM) of Zα and DE-rich peptide were incubated on ice for 1 h in a buffer containing 20 mM HEPES–NaOH pH 7.5, 50 mM NaCl, 1 mM DTT. The mixture was then loaded on a Superdex 30 16/600 column (GE Healthcare) equilibrated in the same buffer. The fractions from the peaks corresponding to Zα alone and the complex of Zα and DE-rich peptide were collected and used for chemical cross-linking.
To analyze complex formation of Zα and other proteins (MBD3, MBD or MBDDE), the mixtures were incubated on ice for 1 h in a buffer containing 20 mM Tris–HCl pH 7.5, 50 mM NaCl, 1 mM TCEP. The mixture was then loaded on a Superdex 75 or Superdex 200 increase 10/300 column (GE Healthcare).

His10-Zα = His10-Zα pull-down from HEK293 lysate with LC-MS/MS; type: binding, human; conditions: HEK293 cell lysate, Ni beads
Method: HEK293 cells were collected and the pellet was resuspended in the lysis buffer [(50 mM Tris–HCl pH7.5, 1% NP-40, 150 mM NaCl, 10 mM imidazole, 0.1 mM PMSF, 90 U/ml Benzonaes (Novagen) and EDTA-free protease inhibitor cocktail tablet (Roche)]. Lysate was clarified by centrifugation for 30 min at 16 000 × g at 4°C. The protein concentration was measured by using Bradford assay. 20 mg of HEK293 cell lysate was pre-cleaned by adding 1 ml of Ni sepharose (50% slurry) (GE Healthcare) and rotated at 4°C for 1 h. Add 1 mg of purified His10-Zα protein (buffer only as a negative control) to the pre-cleaned lysate and rotate at 4°C overnight. To capture His10-Zα protein, add 0.2 ml Ni sepharose (50% slurry) and incubate at 4°C for 1 h in a rotation wheel. […] Add trichloroacetic acid to precipitate and concentrate the eluates. The concentrated eluates were resuspended in NuPAGE LDS sample buffer (Invitrogen), run on NuPAGE 12% Bis–Tris gels (Invotrogen) and stained using Instant Blue (Expedeon). […]
To identify Zα-interacting proteins, the entire gel lanes were divided into several horizontal slices and subjected to in-gel trypsin digestion. The digested samples were analyzed by LC–MS/MS using LTQ-Orbitrap XL mass spectrometer (Thermo Fisher Scientific, Bremen, Germany). […]

[3] = Stability of E. coli-expressed protein; type: physicochemical; conditions: recombinant E. coli-expressed protein
Sso7d = target: T2, Sso7d (UniProt P39476 2-64); test: fluorescence polarization; FP: 20 mM HEPES-NaOH pH 7.5, 50 mM NaCl, 1 mM DTT, 30 ul; temperature not stated; CD buffer not in material; conditions: unlabelled version also purchased; blunt; self-complementary duplex, annealed from 85°C
T2 sequence: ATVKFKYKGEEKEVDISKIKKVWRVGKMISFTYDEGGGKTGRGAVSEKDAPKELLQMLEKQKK

[4] = target: T3, Zα (Z-DNA binding domain of ADAR1) (Homo sapiens, UniProt P55265 133-209); test: as above; conditions: protein: recombinant; tags: His10 (pET16b) or tag-free after TEV (pMCSG7); chain copies: 2; unlabelled version also purchased; blunt; self-complementary duplex, annealed from 85°C
T3 sequence: T1 sequence (P55265 133-209)

[5] = target: MBD3 MBD domain (MBD3MBD) (Homo sapiens, UniProt O95983 1-72); test: fluorescence polarization; high affinity similar to Zα; Kd value not in material; FP: 20 mM HEPES-NaOH pH 7.5, 50 mM NaCl, 1 mM DTT, 30 ul; temperature not stated; CD buffer not in material; conditions: protein: recombinant; tags: His6 removed by TEV; unlabelled version also purchased; blunt; self-complementary duplex, annealed from 85°C
Zα [6] = target: T1, Zα; test: SEC-MALS of Zα and Zα-D/E-rich peptide complexes; type: binding; conditions: Zα 2.7 mg/ml, expected ~8.8
Method: SEC−MALS measurements were conducted using a miniDAWN TREOS detector and an Optilab T-rEX differential refractive index detector (Wyatt Technology Corporation) coupled to an Agilent 1260 Infinity HPLC system. The SEC experiments were performed on an ENrich SEC 70 10 × 300 column (Bio-Rad) equilibrated in a buffer containing 20 mM HEPES–NaOH pH 7.5, 50 mM NaCl, 1 mM TCEP and 0.02% NaN3. The protein Zα alone (2.7 mg/ml) or the mixture of Zα and the D/E-rich peptide at various molar ratios and incubation periods as indicated was loaded onto the column at a flow rate of 0.5 ml/min. Bovine serum albumin (A1900; Sigma) was used for system calibration and molecular weights were calculated using ASTRA 6 software (Wyatt Technology Corporation) with a dn/dc value of 0.185 ml/g.
Figure 3. Analysis of complex formation of Zα and the D/E-rich domain. […] The left y axis represents the normalized UV absorbance at 280 nm, while the right y axis represents the molecular weight (Da). The horizontal traces show the calculated molecular weight. […] TEXT PRINTED IN THE PICTURE: (C) Zα: Measured MW (kDa): 9.8 ± 0.1; Expected MW (kDa): ~8.8 | (C) 1Zα: 1DE: Measured MW (kDa): 12.7 ± 0.1; Expected MW (kDa): ~11.6 | (C) 2Zα: 1DE: Measured MW (kDa): 20.8 ± 0.3; Expected MW (kDa): ~20.5

d(CG)6 duplex = test: Circular dichroism of d(CG)6 DNA conformation
Method: CD spectra were measured at 24°C on a J-815 Spectrometer (JASCO) using a 1 mm path length quartz cell. Prepare 7.5 μM DNA duplex in a buffer consisting of 5 mM HEPES–NaOH pH 7.5, 25 mM NaCl and 1 mM DTT, and in the absence or presence of indicated concentration of proteins. Spectra were recorded between 235 and 305 nm wavelength with a data pitch of 1 nm, bandwidth of 1 nm and with two accumulations at a scanning speed of 10 nm/min.
Figure 6. Zα can compete with the MBD domain for binding to d(CG)6, but not vice versa. (A) CD spectra of the d(CG)6 duplex in the presence of Zα. CD spectra of (B) the d(CG)6 and (C) the d(C^mG)6 duplex, respectively, in the presence of the MBD domain. (D) Monitoring of the change in CD spectra with the addition of increased amounts of Zα to the pre-incubated mixture of the MBD domain and d(CG)6. (E) Monitoring of the change in CD spectra with the addition of increased amount of the MBD domain to the pre-incubated mixture of Zα and d(CG)6. Spectra are expressed in absolute values of ellipticity in millidegrees (mdeg).

[7] = target: D/E-rich peptide of MBD3, unlabelled (full-length D/E-rich peptide) (human); test: SEC-MALS; Zα and D/E-rich peptide, equimolar (1, 16, 29 h) or 4:1 (1 h on ice); ENrich SEC 70 column; 20 mM HEPES-NaOH pH 7.5, 50 mM NaCl, 1 mM TCEP, 0.02% NaN3

Molecule: EDWAGLDEDED [DSS1, protein whose D/E-rich segment (EDWAGLDEDED) acts as a DNA mimic]
attenuation of the affinity of RPA for ssDNA [1]: acts as a DNA mimic to attenuate the affinity of replication protein A (RPA) for ssDNA

B1: MBD3: full-length human MBD3; residue 1–291 (protein)
chain: MERKRWECPALPQGWEREEVPRRSGLSAGHRDVFYYSPSGKKFRSKPQLARYLGGSMDLSTFDFRTGKMLMSKMNKSRQRVRYDSSNQVKGKPDLNTALPVRQTASIFKQPVTKITNHPSNKVKSDPQKAVDQPRQLFWEKKLSGLNAFDIAEELVKTMDLPKGLQGVGPGCTDETLLSAIASALHTSTMPITGQLSAAVEKNPGVWLNTTQPLCKAFMVTDEDIRKQEELVQQVRKRLEEALMADMLAHVEELARDGEAPLDKACAEDDDEEDEEEEEEEPDPDPEMEHV
complex formation with Zα on SEC (Zα [2]): almost no detectable stable complex formation of Zα and MBD3
pull-down by Zα (His10-Zα): could be pulled down by Zα
protein stability (in words) [3]: unstable with a large amount of aggregation and degradation

B2: d(CG)6 (dsDNA)
DNA 1: CGCGCGCGCGCG
DNA 2: CGCGCGCGCGCG
Kd (Sso7d): 262 ± 23 nM
Kd [4]: 40.3 ± 3.2 nM
binding result [5]: binds

measured MW, Zα alone (Zα [6]): 9.8 ± 0.1 kDa
DNA conformation after binding (d(CG)6 duplex; CD 235-305 nm, 24°C, 7.5 μM DNA duplex, 5 mM HEPES–NaOH pH 7.5, 25 mM NaCl, 1 mM DTT): induced the Z-DNA formation
stoichiometry N (Zα per D/E-rich peptide) [7]: 2 and 1
B3: Zα, tag-free (Z-DNA binding domain of human ADAR1, residues 133-209), P55265 133-209 (domain or fragment)
chain: T1 sequence (P55265 133-209)
competition for binding to d(CG)6 (Zα added to pre-incubated MBD domain and d(CG)6) (d(CG)6 duplex; CD, increasing Zα): able to compete with the MBD domain for binding to d(CG)6
